Data from the supplement of paper PMC9170038.

Test system: MS2 coat protein
Assay: apparent KD of MS2 coat protein; designed switch direction (-1 OFF switch, 1 ON switch): 1; higher = weaker reporter binding
Outline: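 Designed RNA switches with common flanks were transcribed on Illumina chips by stalled E. coli RNA polymerase and titrated with SNAP-549-labelled MS2 coat protein, from 0.7 or 1.5 nM doubling to 3 µM, in Tris-HCl pH 7.5 buffer with KCl, MgCl2, BSA, DTT, tRNA and Tween-20. Steps lasted 0.8–1.5 h (lowest) to 10–20 min (highest). Titrations ran without input, with 200 uM small-molecule ligand, or with an oligonucleotide input. Normalised cluster fluorescence was curve-fitted, and apparent KD is the per-design median over clusters.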

[1] = Eterna round: R95, input ligand: FMN 200 uM
[2] = Eterna round: R95, input ligand: microRNA oligo, concentration not stated
[3] = Eterna round: R95, input ligand: none
[4] = input ligand: microRNA oligo, concentration not stated

| Sequence | apparent KD of MS2 coat protein [1] [nM] | apparent KD of MS2 coat protein [2] [nM] | apparent KD of MS2 coat protein [3] [nM] | apparent KD of MS2 coat protein (input ligand: FMN 200 uM) [nM] | apparent KD of MS2 coat protein [4] [nM] | apparent KD of MS2 coat protein (input ligand: none) [nM] |
| --- | --- | --- | --- | --- | --- | --- |
| UCUUGGUUUUUGCUCGUUUUUUGUGUUGAACAUGAGGAUCACCCAUGUAUUGUACAGUCCAGUUUAAUAAUGGUCCA [JMF 5] (puzzle: Sensor for hsa-mir-208a) | 33.9 | 24.6 | 48.8 | – | – | – |
| UCUUGGUUUUUGCUCGUUUUUUGUGUUGAACAUGAGGAUCACCCAUGUAUUGUACGGUCCAAUUUAAUAAUAAUCCG [JMF 64] (puzzle: Sensor for hsa-mir-208a) | 28.8 | 21.9 | 30.6 | – | – | – |
| UCUUGGUUUUUGCUCGUUUUUUGUGUUGAACAUGAGGAUCACCCAUGUAUUGUACGGUCCAAUUUAAUAAUGGUCCA [JMF 37] (puzzle: Sensor for hsa-mir-208a) | 28.9 | 15.7 | 26.7 | – | – | – |
| UCUUGGUUUUUGCUCGUUUUUUGUGUUGAACAUGAGGAUCACCCAUGUAUUGUACGGUCCAGUUUGGUAAUGGUCCG [JMF 35] (puzzle: Sensor for hsa-mir-208a) | 25 | 14.9 | 26.4 | – | – | – |
| UCUUGGUUUUUGCUCGUUUUUUGUGUUGAACAUGAGGAUCACCCAUGUAUUGUACGGUCCGAUUUAAUAAUGGUCCG [JMF 22] (puzzle: Sensor for hsa-mir-208a) | 23.5 | 14.4 | 25.5 | – | – | – |
| UCUUGGUUUUUGCUCGUUUUUUGUGUUGAACAUGAGGAUCACCCAUGUAUUGUACGGUCCGGUUUAAUAAUGGUCCG [JMF 12] (puzzle: Sensor for hsa-mir-208a) | 25 | 14.7 | 26.3 | – | – | – |
| UCUUGGUUUUUGCUCGUUUUUUGUGUUGAACAUGAGGAUCACCCAUGUAUUGUACGGUCCGGUUUAAUAGUGGUCCA [JMF 43] (puzzle: Sensor for hsa-mir-208a) | 95.4 | 59.8 | 105 | – | – | – |
| UCUUGGUUUUUGCUCGUUUUUUGUGUUGAACAUGAGGAUCACCCAUGUAUUGUACGGUCCGGUUUAGUAGUGGUCCG [JMF 17] (puzzle: Sensor for hsa-mir-208a) | 25.7 | 16.6 | 30.4 | – | – | – |
| UCUUGGUUUUUGCUCGUUUUUUGUGUUGAACAUGAGGAUCACCCAUGUAUUGUACGGUCCGGUUUGGUAGUGGUCCG [JMF 16] (puzzle: Sensor for hsa-mir-208a) | 41 | 29.4 | 53.6 | – | – | – |
| UGAACCUUCACAGGAUAUCAUGCGAAAAUUGCGUGAGAAGGGUGAAUGUGGUGUUCAUAGUUGCACAUGAGGAUCACCCAUGUA [SameState NG1 #52] (Eterna round: R96, puzzle: Same State NG 1) | – | – | – | 107 | 135 | 156 |
| UGAAUAAUGUUAGGAUAUACAUGAGGAAUCCUCGUAGAAGGAACAUGACAUGAGGAUCACCCAUGUAGCGCUCAGAAGAGCGCA [Mat - Same State NG 1 - JL mod - D50] (Eterna round: R96, puzzle: Same State NG 1) | – | – | – | – | 73.4 | – |
| UGAAUAGUGAUAGGAUAUACAUGAGGAAUCCUCGUAGAAGGAUCACGACAUGAGGAUCACCCAUGUAGCCGUCAGAAGACGGCA [Mat - Same State NG 1 - JL mod - D60] (Eterna round: R96, puzzle: Same State NG 1) | – | – | – | 450 | 345 | 2610 |
| UGAAUAGUUACAGGAUAUGAGCCGUAAAUUGGGUCAGAAGGGUGGGUGUUCUGCGCGGUGUGUUACAUGAGGAUCACCCAUGUU [SameState NG1 #30] (Eterna round: R96, puzzle: Same State NG 1) | – | – | – | 245 | 99.8 | 244 |
| UGAAUAGUUACAGGAUAUGAGUUGUAAAUUGGGUCAGAAGGGUGGGUGUUCUGCGCGGUGUGUUACAUGAGGAUCACCCAUGUU [SameState NG1 #29] (Eterna round: R96, puzzle: Same State NG 1) | – | – | – | 504 | 182 | 377 |
| UGAAUAGUUACAGGAUAUGAGUUGUAAAUUGGGUCAGAAGGGUGGGUGUUUUGCGCGGUGUGUUACAUGAGGAUCACCCAUGUU [SameState NG1 #28] (Eterna round: R96, puzzle: Same State NG 1) | – | – | – | 81.8 | 75.1 | 122 |
| UGAAUGGUGAUAGGAUAUACAUGAGGAAUCCUCGUAGAAGGAUCACGACAUGAGGAUCACCCAUGUAGCCGUCCGUAGACGGCC [salish99_SSNG1_r04_002] (Eterna round: R96, puzzle: Same State NG 1) | – | – | – | – | 89.6 | – |

| Sequence | apparent KD of MS2 coat protein [1] [nM] | apparent KD of MS2 coat protein [2] [nM] | apparent KD of MS2 coat protein [3] [nM] | apparent KD of MS2 coat protein (input ligand: FMN 200 uM) [nM] | apparent KD of MS2 coat protein [4] [nM] | apparent KD of MS2 coat protein (input ligand: none) [nM] |
| --- | --- | --- | --- | --- | --- | --- |
| UGCAUACAUGAGGAUCACCCAUGUCAACUUAGUCGAGGAUAUGGGCAGCCGUGAGGCGAACCAGAAGGCGAAUUGU [JL-ss1-3.02 ViennaUCT mod] (puzzle: Same State 1) | 18.5 | 43.8 | 45.7 | – | – | – |
| UGCCUGAGUCGAGGAUAUUAUGGAUCCUCUAAUACAUGAGGAUCACCCAUGUAAUUAAUUAUACAUGAGAAGGUGACUCAGGCU [SSNG2/12-B1] (Eterna round: R96, puzzle: Same State NG 2) | – | – | – | – | 293 | – |
| UGCCUGAGUCGAGGAUAUUAUGGAUCCUUUAAUACAUGAGGAUCACCCAUGUAAUUAAUUAUACAUGAGAAGGUGACUCAGGCU [SSNG2/11-B3] (Eterna round: R96, puzzle: Same State NG 2) | – | – | – | 24.3 | 194 | 253 |
| UGCGGAUAACAGUAGGAUAUGGUCAACGCCACAUGAGGAUCACCCAUGUCGUACCGGCACCUGGACUAGAAGGACUGCCUCCCGC [Esleberi] (puzzle: Same State 2) | 11.6 | 26.4 | 38 | – | – | – |
| UGCUACGGAGACAUGAGGAUCACCCAUGUCGCUGCUUAAGGGCAGGAUAUGAAAGGGAAUCCCAAUCAGAAGGGCCGCAGCCAC [Isanxeanor] (Eterna round: R96, puzzle: Same State NG 3) | – | – | – | 35.3 | 22.8 | 32.6 |
| UGCUAUUGUAUAUUGGUGCAAGCUUUUUGACAUGAGGAUCACCCAUGUACUCGUCAUUAGCGCAGUCCGUAGACUGC (puzzle: Sensor for hsa-mir-208a) | 74.2 | 15.7 | 79 | – | – | – |
| UGGAUCUAGGCUUGCCUGGGUCCUUGUUGACAUGAGGAUCACCCAUGUGUUUUUUUUUUGCUUUUUGUUUGUCAACA [JL A Humble Attempt mod 1] (puzzle: Sensor for hsa-mir-208a) | 20.8 | 13.6 | 26.1 | – | – | – |
| UGGCUCAGACGAGGAUAUACGUGGUCACAUGAGGAUCACCCAUGUCUCGAGCUUCGGCUCGAGGCGUAGAAGGCGUCUGAGCCA [SSNG2/6-A2] (Eterna round: R96, puzzle: Same State NG 2) | – | – | – | 125 | 141 | 218 |
| UGGCUCAGACGAGGAUAUACGUGGUCACAUGAGGAUCACCCAUGUCUCGAGCUUCGGCUCGAGGCGUAGAAGGUGUCUGAGCCA [SSNG2/6-C2] (Eterna round: R96, puzzle: Same State NG 2) | – | – | – | 192 | 609 | 575 |
| UGGCUCAGACGAGGAUAUAUGUAAUAACAUGAGGAUCACCCAUGUGUCGAGCUUCGGCUCGACACAUAGAAGGCGUCUGAGCCU [SSNG2/2-A3] (Eterna round: R96, puzzle: Same State NG 2) | – | – | – | 12.7 | 20.2 | 33.3 |
| UGGCUCAGACGAGGAUAUAUGUCUCGAGCUUCGGCUCGAGACAUGAGGAUCACCCAUGUAAUAACAUAGAAGGUGUCUGAGCCA [SSNG2/1-C2] (Eterna round: R96, puzzle: Same State NG 2) | – | – | – | 50.6 | 240 | 263 |
| UGGCUCAGACGAGGAUAUAUGUCUCGAGCUUCGGCUCGAGACAUGAGGAUCACCCAUGUAAUAACAUAGAAGGUGUCUGAGCCU [SSNG2/1-C3] (Eterna round: R96, puzzle: Same State NG 2) | – | – | – | 42.9 | 226 | 388 |
| UGGCUCAGACGAGGAUAUGAUCAUGGCGCUUCGGCGCAUACAUGAGGAUCACCCAUGUAAAGUGAUCAGAAGGUGUCUGAGCCU [SSNG2/7-B3] (Eterna round: R96, puzzle: Same State NG 2) | – | – | – | 11.5 | 12.4 | 14.4 |
| UGGCUCAGACUAGGAUAUGAUCAUGGCGCUUCGGCGCAUACAUGAGGAUCACCCAUGUAAAGUGAUCAGAAGGAGUCUGAGCCA [SSNG2/7-C2] (Eterna round: R96, puzzle: Same State NG 2) | – | – | – | 14.5 | 11.9 | 15.8 |
| UGGCUCAGAGCAGGAUAUAUGCGAUCACAUGAGGAUCACCCAUGUCUCGAGCUUCGGCUCGAGGCAUAGAAGGGCUCUGAGCCA [SSNG2/4-B2] (Eterna round: R96, puzzle: Same State NG 2) | – | – | – | 14.4 | 26.8 | 36.4 |
| UGGCUCAGAGCAGGAUAUAUGUGAUCACAUGAGGAUCACCCAUGUCUCGAGCUUCGGCUCGAGACAUAGAAGGGCUCUGAGCCU [SSNG2/3-B3] (Eterna round: R96, puzzle: Same State NG 2) | – | – | – | 110 | 52.7 | 137 |
